Test results as given in patent US20240269292A1.
Non-standard residues stand in square brackets, D forms with d. No end group written: not given here. *: point of attachment. Dmt = Cc1cc(O)cc(C)c1C[C@H](N)C(=O)O; stearyl ester = CCCCCCCCCCCCCCCCCCO*

What was measured:
[1] = Fluorescence microscopy of complexation of FITC-labeled drug with particulates; assay type: physicochemical; conditions: for Fluorescence after carboxyesterase: carboxyesterase 0.1 μg/mL
Source text: (§1) As described herein, formation of MTT-prodrug-complex particulates can be verified experimentally by direct visualization. For example, the MTT-prodrug EY005-stearyl was fluorescently labeled with fluorescein isothiocyanate (FITC) and admixed with different complexation agents. The resultant mixture was then visualized under direct fluorescence microscopy. […] In contrast, FITC-labeled EY005-stearyl was not observed to form drug-complex particulates with silica microbeads (see FIG. 24A-24D), indicating the process of complexation and drug-complex particulate formation is highly dependent on favorable noncovalent interaction between drug and complexation agent.
(§2) Further, this noncovalent interaction is specifically mediated by the conjugation moiety of the MTT-prodrug. FITC-labeled EY005-stearyl that had been admixed with complexation agent was treated with an aqueous solution of carboxyesterase (0.1 μg/mL) to hydrolyze the ester bond of the prodrug, releasing the fluorescent peptide.
as §1, with “(FIG. 24C),” for “(see FIG. 24A-24D),”

[2] = biological target: Albumin (Homo sapiens, UniProt P02768); assay: as above; assay type: binding
Source text: as §1, §2
as §1, with “(FIG. 24C),” for “(see FIG. 24A-24D),”

[3] = assay type: physicochemical; conditions: EY005-stearyl solubilized in methyl laurate, incubated 1 hour, HPLC
Protocol: Kd values were calculated as [unbound]/[bound] fraction prodrug under each condition.

[4] = system: T1, EY005-stearyl prodrug (H-d-Arg-DMT-Lys-Phe(-O)-stearyl)
T1 sequence: RYKF

[5] = biological target: Albumin; assay: pull-down by centrifugation in methyl laurate after 1 hour incubation, HPLC quantification
[6] = biological target: Albumin; assay: pull-down by centrifugation in methyl laurate after 1 hour incubation, HPLC quantification; unitless ratio

In the case of “FITC-labeled EY005 native peptide: EY005 native peptide labeled with fluorescein isothiocyanate ([dR][Dmt]KF-OH; also: FITC label, site not given here)”, the Complexation by fluorescence ([1]; silica microbeads) is reported as “interacted with silica microbeads creating fluorescent round figures” and the Complexation by fluorescence [2] is reported as “minimal complexation”.

In the case of OC[C@H]1O[C@@H]2O[C@H]3[C@H](O)[C@@H](O)[C@@H](O[C@H]4[C@H](O)[C@@H](O)[C@@H](O[C@H]5[C@H](O)[C@@H](O)[C@@H](O[C@H]6[C@H](O)[C@@H](O)[C@@H](O[C@H]7[C@H](O)[C@@H](O)[C@@H](O[C@H]8[C@H](O)[C@@H](O)[C@@H](O[C@H]9[C@H](O)[C@@H](O)[C@@H](O[C@H]1[C@H](O)[C@H]2O)O[C@@H]9CO)O[C@@H]8CO)O[C@@H]7CO)O[C@@H]6CO)O[C@@H]5CO)O[C@@H]4CO)O[C@@H]3CO [Cyclodextrin gamma], the “μg EY005-stearyl complexed per mg complexation agent” value [3] is reported as 2.3 μg per mg complexation agent.

With “FITC-labeled EY005-stearyl prodrug: MTT-prodrug EY005-stearyl fluorescently labeled with fluorescein isothiocyanate (FITC) ([dR][Dmt]KF-{stearyl ester}; also: FITC label, site not given here)” the Fluorescence after carboxyesterase ([1]; cyclodextrin) was “reduced levels of fluorescence”, the Fluorescence after carboxyesterase ([1]; lecithin) was “reduced levels of fluorescence” and the Fluorescence after carboxyesterase ([1]; magnesium stearate) was “reduced levels of fluorescence”. The Complexation by fluorescence ([1]; silica microbeads) was “no evidence of complexation”, the Fluorescence after carboxyesterase ([1]; silica microbeads) was “did not alter extremely low levels of fluorescence” and the Complexation by fluorescence [2] was “bright fluorescence”. The Fluorescence after carboxyesterase ([2]; carboxyesterase 0.1 μg/mL) was “reduced levels of fluorescence”.

In the case of carboxyesterase, the “cleavage of the prodrug ester bond (HPLC)” value [4] is reported as “Incubation of EY005-stearyl with carboxyesterase produced rapid cleavage of the prodrug ester bond, releasing EY005”.

For H-[dR][Dmt]KF-{stearyl ester} (also: DMT isomer not given here) [EY005-stearyl prodrug (H-d-Arg-DMT-Lys-Phe(-O)-stearyl)], the µg EY005-stearyl complexed per mg complexation agent (binding capacity) (µg per mg complexation agent) [5] was 4.5 and the Calculated Kd ([unbound]/[bound] fraction of prodrug) [6] was 1.34.
